Results: US20190083612A1 (RINAT NEUROSCIENCE, published 2019)
Each block holds one molecule with its values, some of them ahead of it.

Experiments:
[1] = target: human PD-1 on primary human T cells (human) (UniProt Q15116); test: cell-based or functional assay
[2] = target: T1, human PD-1 (hPD-1) monomer (human, UniProt Q15116 25-167); test: SPR, human PD-1, 25 C
T1 construct: also called hu-PD-1; not shown: His tag (His-tagged monomer)

[3] = target: T1, human PD-1 (hPD-1) monomer; test: SPR (ProteOn), hPD-1 monomer over amine-coupled IgG, 25 C
Method: (§1) All interaction analysis was performed on label-free biosensors at 25° C. unless stated otherwise. Surface plasmon resonance biosensors (ProteOn-XPR™ from BioRad™, and Biacore 2000™ and Biacore T200™ from GE Life Sciences) were used to study human and cynomolgus monkey PD-1 and a biolayer interferometry biosensor (Octet-Red384, Fortebio/Pall Life Sciences) was used to study mouse PD-1. ProteOn experiments were performed in PBS pH 7.4+0.01% Tween-20 (PBST) running buffer. Biacore experiments were performed in 10 mM Hepes pH 7.4, 150 mM NaCl, 0.05% Tween-20 (HBST+) and Octet experiments were performed in HBST+ with 1 g/l BSA. The ProteOn data were processed in the ProteOn Manager software, the Biacore data were processed in Biaevaluation, and the Octet data were simply aligned to zero in the control software.
(§2) The surfaces for these experiments were prepared in three steps; (1) the ligand channels were minimally activated for two min using a freshly prepared mixture of the activation reagents at final 0.8 mM EDC and 0.2 mM sulfo-NHS in water, (2) the IgGs were coupled for three min at 15 μg/ml in 10 mM sodium acetate pH 4.5, and (3) excess reactive esters were blocked for three min with 1 M ethanolamine HCl pH 8.5. […] Association and dissociation times were 3 min and 20 min, respectively and all analytes were injected in duplicate binding cycles. Surfaces were regenerated with a cocktail of 2:1 v/v Pierce IgG elution buffer (pH 2.8):4 M NaCl.

[4] = target: T1, human PD-1 (hPD-1) monomer; test: SPR (ProteOn), hPD-1 monomer over amine-coupled IgG, 25 C; 5% rule
Method: as §2
N=2 refers to two independent experiments on different chips.

[5] = target: T1, human PD-1 (hPD-1) monomer; test: SPR (Biacore T200), hPD-1 monomer over anti-hFc-captured hIgG4, 25 C
Method: as §1
(§3) The hPD-1 was injected at active concentrations of 0, 10, and 100 nM for three minutes allowing an 18-min dissociation phase. The capture surfaces were regenerated with 75 mM phosphoric acid after each binding cycle.

[6] = target: T1, human PD-1 (hPD-1) monomer; test: SPR (Biacore T200), hPD-1 monomer over anti-hFc-captured hIgG4, 37 C
Method: as §3

Chain of human PD-1 on primary human T cells (human) (Q15116 25-288 limits assumed): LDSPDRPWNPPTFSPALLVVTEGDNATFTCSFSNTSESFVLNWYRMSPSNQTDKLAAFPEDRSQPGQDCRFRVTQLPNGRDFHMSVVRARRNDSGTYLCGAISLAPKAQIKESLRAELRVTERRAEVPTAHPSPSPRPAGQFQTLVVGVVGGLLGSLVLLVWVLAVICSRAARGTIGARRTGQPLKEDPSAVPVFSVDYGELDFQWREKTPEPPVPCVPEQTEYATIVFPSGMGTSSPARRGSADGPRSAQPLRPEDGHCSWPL
T1 sequence (Q15116 25-167 limits assumed): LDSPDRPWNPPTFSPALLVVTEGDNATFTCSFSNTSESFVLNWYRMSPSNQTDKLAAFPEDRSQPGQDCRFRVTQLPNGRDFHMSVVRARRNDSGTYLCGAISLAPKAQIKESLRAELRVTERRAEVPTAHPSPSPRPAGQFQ

Molecule: EH12.1 (BD Biosciences mouse anti human anti-PD-1 antibody, mouse isotype IgG1 Kappa)
- IFNγ (pg/ml), MLR day 5, antibody 0.0001 µg/ml [1]: 1700 pg/mL
- IFNγ (pg/ml), MLR day 5, antibody 0.001 µg/ml [1]: 2280 pg/mL
- IFNγ (pg/ml), MLR day 5, antibody 0.01 µg/ml [1]: 4380 pg/mL
- IFNγ (pg/ml), MLR day 5, antibody 0.1 µg/ml [1]: 4730 pg/mL
- IFNγ (pg/ml), MLR day 5, antibody 1 µg/ml [1]: 9910 pg/mL
- IFNγ (pg/ml), MLR day 5, antibody 10 µg/ml [1]: 15100 pg/mL
- TNF (pg/ml), MLR day 5, antibody 0.0001 µg/ml [1]: 753 pg/mL
- TNF (pg/ml), MLR day 5, antibody 0.001 µg/ml [1]: 687 pg/mL
- TNF (pg/ml), MLR day 5, antibody 0.01 µg/ml [1]: 859 pg/mL
- TNF (pg/ml), MLR day 5, antibody 0.1 µg/ml [1]: 745 pg/mL
- TNF (pg/ml), MLR day 5, antibody 1 µg/ml [1]: 979 pg/mL
- TNF (pg/ml), MLR day 5, antibody 10 µg/ml [1]: 1950 pg/mL

B1: mAb2 (antibody, V domains shown)
VH: QVQLVQSGAEVKKPGASVKVSCKASGYTFTSYWINWVRQAPGQGLEWMGNIYPGSSLTNYNEKFKNRVTMTRDTSTSTVYMELSSLRSEDTAVYYCARLLTGTFAYWGQGTLVTVSS
VL: DIVMTQSPDSLAVSLGERATINCKSSQSLWDSGNQKNFLTWYQQKPGQPPKLLIYWTSYRESGVPDRFSGSGSGTDFTLTISSLQAEDVAVYYCQNDYFYPLTFGGGTKVEIK
notes: Variable regions only
- Kd [2]: 2.22 nM

B3: mAb15 IgG1 AAA (antibody, V domains shown)
VH: QVQLVQSGAEVKKPGASVKVSCKASGYTFTSYWINWVRQAPGQGLEWMGNIWPGSSLTNYNEKFKNRVTMTRDTSTSTVYMELSSLRSEDTAVYYCARLLTGTFAYWGQGTLVTVSS
VL: DIVMTQSPDSLAVSLGERATINCKSSQSLWDSGNQKNFLTWYQQKPGQPPKLLIYWTSYRESGVPDRFSGSGSGTDFTLTISSLQAEDVAVYYCQNDYFYPHTFGGGTKVEIK
notes: also called mAb15-AAA
- Kd [3]: < 0.053 nM
- kon [3]: 813000 M⁻¹ s⁻¹
- koff [4]: < 4.3e-05 s⁻¹

B4: mAb13 (antibody, V domains shown)
VH: QVQLVQSGAEVKKPGASVKVSCKASGYTFTSYWINWVRQAPGQGLEWMGNIWPGSSLTNYNEKFKNRVTMTRDTSTSTVYMELSSLRSEDTAVYYCARLLTGTFAYWGQGTLVTVSS
VL: DIVMTQSPDSLAVSLGERATINCKSSQSLWDSGNQKNFLTWYQQKPGQPPKLLIYWTSTRESGVPDRFSGSGSGTDFTLTISSLQAEDVAVYYCQNDYFYPLTFGGGTKVEIK
notes: Variable regions only
- Kd [2]: 5.87 nM

B5: mAb5 (antibody, V domains shown)
VH: QVQLVQSGAEVKKPGASVKVSCKASGYTFTSYWINWVRQAPGQGLEWMGNIYPGSSLTNYNEKFKNRVTMTRDTSTSTVYMELSSLRSEDTAVYYCARLSTGTFAYWGQGTLVTVSS
VL: DIVMTQSPDSLAVSLGERATINCKSSQSLWDSGNQKNFLTWYQQKPGQPPKLLIYWTSTRESGVPDRFSGSGSGTDFTLTISSLQAEDVAVYYCQNDYFYPLTFGGGTKVEIK
notes: Variable regions only
- Kd [2]: 12.8 nM

B6: mAb9 (antibody, V domains shown)
VH: QVQLVQSGAEVKKPGASVKVSCKASGYTFTSYWINWVRQAPGQGLEWMGNIYPGSSITNYNEKFKNRVTMTRDTSTSTVYMELSSLRSEDTAVYYCARLTTGTFAYWGQGTLVTVSS
VL: DIVMTQSPDSLAVSLGERATINCKSSQSLWDSGNQKNFLTWYQQKPGQPPKLLIYWTSTRESGVPDRFSGSGSGTDFTLTISSLQAEDVAVYYCQNDYFYPLTFGGGTKVEIK
notes: Variable regions only
- Kd [2]: 13.5 nM

B8: mAb1 (antibody, V domains shown)
VH: QVQLVQSGAEVKKPGASVKVSCKASGYTFTSYWINWVRQAPGQGLEWMGNIYPGSSLTNYNEKFKNRVTMTRDTSTSTVYMELSSLRSEDTAVYYCARLLTGTFAYWGQGTLVTVSS
VL: DIVMTQSPDSLAVSLGERATINCKSSQSLWDSGNQKNFLTWYQQKPGQPPKLLIYWTSTRESGVPDRFSGSGSGTDFTLTISSLQAEDVAVYYCQNDYFYPLTFGGGTKVEIK
notes: Variable regions only
- Kd [2]: 64.2 nM

B10: mAb12 (antibody, V domains shown)
VH: QVQLVQSGAEVKKPGASVKVSCKASGYTFTSYWINWVRQAPGQGLEWMGNIYPGSSITNYNEKFKNRVTMTRDTSTSTVYMELSSLRSEDTAVYYCARLTTGTFAYWGQGTLVTVSS
VL: DIVMTQSPDSLAVSLGERATINCKSSQSLWDSTNQKNFLTWYQQKPGQPPKLLIYWTSTRESGVPDRFSGSGSGTDFTLTISSLQAEDVAVYYCQNDYFYPLTFGGGTKVEIK
notes: Variable regions only
- Kd [2]: 17.3 nM

B14: mAb10 (antibody, V domains shown)
VH: QVQLVQSGAEVKKPGASVKVSCKASGYTFTSYWINWVRQAPGQGLEWMGNIYPGSSITNYNEKFKNRVTMTRDTSTSTVYMELSSLRSEDTAVYYCARLTTGTFAYWGQGTLVTVSS
VL: DIVMTQSPDSLAVSLGERATINCKSSQSLWDSGNQKNFLTWYQQKPGQPPKLLIYWTSYRESGVPDRFSGSGSGTDFTLTISSLQAEDVAVYYCQNDYFYPLTFGGGTKVEIK
notes: Variable regions only
- Kd [2]: 0.98 nM

B15: mAb16 (antibody, V domains shown)
VH: QVQLVQSGAEVKKPGASVKVSCKASGYTFTSYWINWVRQAPGQGLEWMGNIWPGSSLTNYNEKFKNRVTMTRDTSTSTVYMELSSLRSEDTAVYYCARLLTGTFAYWGQGTLVTVSS
VL: DIVMTQSPDSLAVSLGERATINCKSSQSLWDSTNQKNFLTWYQQKPGQPPKLLIYWTSTRESGVPDRFSGSGSGTDFTLTISSLQAEDVAVYYCQNDYFYPLTFGGGTKVEIK
notes: Variable regions only
- Kd [2]: 7.51 nM

B16: mAb15 (human IgG4 kappa, hinge stabilized) (antibody, V domains shown)
VH: QVQLVQSGAEVKKPGASVKVSCKASGYTFTSYWINWVRQAPGQGLEWMGNIWPGSSLTNYNEKFKNRVTMTRDTSTSTVYMELSSLRSEDTAVYYCARLLTGTFAYWGQGTLVTVSS
VL: DIVMTQSPDSLAVSLGERATINCKSSQSLWDSGNQKNFLTWYQQKPGQPPKLLIYWTSYRESGVPDRFSGSGSGTDFTLTISSLQAEDVAVYYCQNDYFYPHTFGGGTKVEIK
notes: also called mAb15-G4; mAb15 (G4)
- Kd [2]: 0.49 nM
- Kd [3]: < 0.058 nM
- kon [3]: 732000 M⁻¹ s⁻¹
- koff [4]: < 4.3e-05 s⁻¹
- Kd [5]: 0.49 nM
- koff [5]: 0.000171 s⁻¹
- kon [5]: 349000 M⁻¹ s⁻¹
- Kd [6]: 0.54 nM
- koff [6]: 0.000373 s⁻¹
- kon [6]: 694000 M⁻¹ s⁻¹

The remaining lines, values ahead:

- Kd [3]: < 0.086 nM
- kon [3]: 497000 M⁻¹ s⁻¹
- koff [4]: < 4.3e-05 s⁻¹
B2: mAb7 IgG1 AAA (antibody, V domains shown)
VH: QVQLVQSGAEVKKPGASVKVSCKASGYTFTSYWINWVRQAPGQGLEWMGNIYPGSSLTNYNEKFKNRVTMTRDTSTSTVYMELSSLRSEDTAVYYCARLSTGTFAYWGQGTLVTVSS
VL: DIVMTQSPDSLAVSLGERATINCKSSQSLWDSGNQKNFLTWYQQKPGQPPKLLIYWTSYRESGVPDRFSGSGSGTDFTLTISSLQAEDVAVYYCQNDYFYPHTFGGGTKVEIK
notes: also called mAb7-AAA

- Kd [2]: 0.6 nM
B7: mAb14 (antibody, V domains shown)
VH: QVQLVQSGAEVKKPGASVKVSCKASGYTFTSYWINWVRQAPGQGLEWMGNIWPGSSLTNYNEKFKNRVTMTRDTSTSTVYMELSSLRSEDTAVYYCARLLTGTFAYWGQGTLVTVSS
VL: DIVMTQSPDSLAVSLGERATINCKSSQSLWDSGNQKNFLTWYQQKPGQPPKLLIYWTSYRESGVPDRFSGSGSGTDFTLTISSLQAEDVAVYYCQNDYFYPLTFGGGTKVEIK
notes: Variable regions only

- Kd [2]: 1.16 nM
B9: mAb6 (antibody, V domains shown)
VH: QVQLVQSGAEVKKPGASVKVSCKASGYTFTSYWINWVRQAPGQGLEWMGNIYPGSSLTNYNEKFKNRVTMTRDTSTSTVYMELSSLRSEDTAVYYCARLSTGTFAYWGQGTLVTVSS
VL: DIVMTQSPDSLAVSLGERATINCKSSQSLWDSGNQKNFLTWYQQKPGQPPKLLIYWTSYRESGVPDRFSGSGSGTDFTLTISSLQAEDVAVYYCQNDYFYPLTFGGGTKVEIK
notes: Variable regions only

- Kd [2]: 1.43 nM
B11: mAb3 (antibody, V domains shown)
VH: QVQLVQSGAEVKKPGASVKVSCKASGYTFTSYWINWVRQAPGQGLEWMGNIYPGSSLTNYNEKFKNRVTMTRDTSTSTVYMELSSLRSEDTAVYYCARLLTGTFAYWGQGTLVTVSS
VL: DIVMTQSPDSLAVSLGERATINCKSSQSLWDSGNQKNFLTWYQQKPGQPPKLLIYWTSYRESGVPDRFSGSGSGTDFTLTISSLQAEDVAVYYCQNDYFYPHTFGGGTKVEIK
notes: Variable regions only

- Kd [2]: 0.93 nM
B12: mAb11 (antibody, V domains shown)
VH: QVQLVQSGAEVKKPGASVKVSCKASGYTFTSYWINWVRQAPGQGLEWMGNIYPGSSITNYNEKFKNRVTMTRDTSTSTVYMELSSLRSEDTAVYYCARLTTGTFAYWGQGTLVTVSS
VL: DIVMTQSPDSLAVSLGERATINCKSSQSLWDSGNQKNFLTWYQQKPGQPPKLLIYWTSYRESGVPDRFSGSGSGTDFTLTISSLQAEDVAVYYCQNDYFYPHTFGGGTKVEIK
notes: Variable regions only

- Kd [2]: 17.4 nM
B13: mAb8 (antibody, V domains shown)
VH: QVQLVQSGAEVKKPGASVKVSCKASGYTFTSYWINWVRQAPGQGLEWMGNIYPGSSLTNYNEKFKNRVTMTRDTSTSTVYMELSSLRSEDTAVYYCARLSTGTFAYWGQGTLVTVSS
VL: DIVMTQSPDSLAVSLGERATINCKSSQSLWDSTNQKNFLTWYQQKPGQPPKLLIYWTSTRESGVPDRFSGSGSGTDFTLTISSLQAEDVAVYYCQNDYFYPLTFGGGTKVEIK
notes: Variable regions only
